Laboratory results published in article PMC13544220, “Glycemic and bodyweight effects of GIPR coding variation reflect differences in surface expression and intrinsic functional impairment” (Science Advances, 2026).
Where a chain is given by its changes, count along the chain named. Names and notes keep the numbering of the source.

How the values were obtained:
Assay type in all cases: cell-based, human
[1] = system: wild-type and variant SNAP-GIPR; test: Surface SNAP-GIPR expression (SNAP-tag labelling) in AD293 cells; conditions: for AD293 Surface: Fig S3E, mean; for Surface SNAP-GIPR expression: sheet Fig 1C;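 as to all read-outs here: scaled to the experimental average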
In short: (§1)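 Surface GIPR is quantified from wide-field images after labelling intact transfected cells with a membrane-impermeant SNAP probe at 500 nM for 10 min at room temperature. Specific signal, corrected for nontransfected cells, is normalized to the experiment-wide average or to wild-type.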

[2] = system: wild-type and variant SNAP-GIPR; test: Surface SNAP-GIPR expression (SNAP-tag labelling) in INS-1 cells; conditions: Fig 4G; Mean
In short: as §1

[3] = system: wild-type and variant SNAP-GIPR; test: Single-concentration GIP cAMP response by HTRF in AD293 cells; conditions: Fig S3F, HTRF, mean;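 also: ratio to experiment-wide average response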
Description: (§2) All variants were tested in parallel on each occasion to control for transfection efficiency differences between experiments.

[4] = system: wild-type and variant SNAP-GIPR; test: Single-concentration GIP cAMP response by HTRF in INS-1 cells; conditions: Fig S3E, mean
Description: as §2

[5] = system: wild-type and variant SNAP-GIPR; test: cADDis cAMP imaging in AD293 cells, ensemble, expression-matched and per decile; conditions: Fig S3F, cADDis, mean
In short: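 Per-cell cAMP from cADDis intensity over time, with cells excluded by IBMX/FSK response criteria. Expression matching used wild-type surface-SNAP deciles, top and bottom trimmed, mean of decile means. Ensemble values ignore deciles. Wide-field imaging at 37 °C in KRBH with 6 mM glucose, 0.1% BSA, 24 h post-transfection in AD293.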

[6] = system: wild-type and variant SNAP-GIPR; test: Constitutive and agonist-mediated internalization, reversible SNAP-tag labelling, AD293 cells; design: key to Internalisation, Vehicle / Internalisation, +GIP / Internalisation, GIP-only: % internalization: residual fluorescence after Mesna vs pre-Mesna; Surface expression: unit not given here; conditions: Mean; for +GIP internalisation (100 nM) / GIP-specific internalisation (100 nM) / Constitutive internalisation (100 nM) / Surface expression: Fig 4E; for +GIP internalisation (100 nM) / GIP-specific internalisation (100 nM): GIP 100 nM; for Internalisation, +GIP / Internalisation, GIP-only / Internalisation, Vehicle: Fig S4C, AD293
In short: (§3)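 Surface SNAP-GIPR signal removable by Mesna was tracked by imaging before and 10 min after treatment in pH 8.6 TNE buffer. Internalization is the Mesna-resistant share of specific fluorescence.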

[7] = system: wild-type and variant SNAP-GIPR; test: Constitutive and agonist-mediated internalization, reversible SNAP-tag labelling, INS-1 cells; design: key to Internalisation, GIP-only / Internalisation, Vehicle / Internalisation, +GIP: % internalization: residual fluorescence after Mesna vs pre-Mesna; conditions: Mean; for +GIP internalisation (100 nM) / GIP-specific internalisation (100 nM) / Constitutive internalisation (100 nM): Fig 4G; for +GIP internalisation (100 nM) / GIP-specific internalisation (100 nM): GIP 100 nM; for Internalisation, +GIP / Internalisation, GIP-only / Internalisation, Vehicle: Fig S4C, INS-1
In short: as §3

[8] = column repeated, paired with cAMP 100 nM

B1: R183Q (protein, UniProt P48546 22-466, looked up, variant R183Q)
Gastric inhibitory …: RAETGSKGQTAGELYQRWERYRRECQETLAAAEPPSGLACNGSFDMYVCWDYAAPNATARASCPWYLPWHHHVAAGFVLRQCGSDGQWGLWRDHTQCENPEKNEAFLDQRLILERLQVMYTVGYSLSLATLLLALLILSLFRRLHCTRNYIHINLFTSFMLQAAAILSRDRLLPRPGPYLGDQALALWNQALAACRTAQIVTQYCVGANYTWLLVEGVYLHSLLVLVGGSEEGHFRYYLLLGWGAPALFVIPWVIVRYLYENTQCWERNEVKAIWWIIRTPILMTILINFLIFIRILGILLSKLRTRQMRCRDYRLRLARSTLTLVPLLGVHEVVFAPVTEEQARGALRFAKLGFEIFLSSFQGFLVSVLYCFINKEVQSEIRRGWHHCRLRRSLGEEQRQLPERAFRALPSGSGPGEVPTSRGLSSGTLPGPGNEASRELESYC
AD293 Surface [1, 8]: 0.6425
AD293 Surface ([1]; paired with cAMP 100 pM): 0.6425
Surface SNAP-GIPR expression ([1]; replicate 1): 0.7543
Surface SNAP-GIPR expression ([1]; replicate 2): 1.106
Surface SNAP-GIPR expression ([1]; replicate 3): 0.9536
Surface SNAP-GIPR expression ([1]; replicate 4): 0.232
Surface SNAP-GIPR expression ([1]; replicate 5): 0.7423
Surface SNAP-GIPR expression ([1]; replicate 6): 0.6069
Surface SNAP-GIPR expression ([1]; replicate 7): 1.15
Surface SNAP-GIPR expression ([1]; replicate 8): 0.9044
Surface SNAP-GIPR expression ([1]; replicate 9): 0.5747
Surface SNAP-GIPR expression ([1]; replicate 10): 0.6709
Surface SNAP-GIPR expression ([1]; replicate 11): 0.6959
Surface SNAP-GIPR expression ([1]; replicate 12): 0.6048
Surface SNAP-GIPR expression ([1]; replicate 13): 0.2083
Surface SNAP-GIPR expression ([1]; replicate 14): 0.4922
Surface SNAP-GIPR expression ([1]; replicate 15): 0.6065
Surface SNAP-GIPR expression ([1]; replicate 16): 0.716
Surface SNAP-GIPR expression ([1]; replicate 17): 0.7375
Surface SNAP-GIPR expression ([1]; replicate 18): 0.5932
Surface SNAP-GIPR expression ([1]; replicate 19): 0.8135
Surface SNAP-GIPR expression ([1]; replicate 20): 0.672
Surface SNAP-GIPR expression ([1]; replicate 21): 0.7253
Surface SNAP-GIPR expression ([1]; replicate 22): 0.7101
Surface SNAP-GIPR expression ([1]; replicate 23): 0.6734
Surface SNAP-GIPR expression ([1]; replicate 24): 0.6371
Surface SNAP-GIPR expression ([1]; replicate 25): 0.6035
Surface SNAP-GIPR expression ([1]; replicate 26): 0.6412
Surface SNAP-GIPR expression ([1]; replicate 27): 0.6638
Surface SNAP-GIPR expression ([1]; replicate 28): 0.5579
Surface SNAP-GIPR expression ([1]; replicate 29): 0.6957
Surface SNAP-GIPR expression ([1]; replicate 30): 0.2984
Surface SNAP-GIPR expression ([1]; replicate 31): 0.1821
Surface SNAP-GIPR expression ([1]; replicate 32): 0.3718
Surface SNAP-GIPR expression ([1]; replicate 33): 0.3193
Surface SNAP-GIPR expression ([1]; replicate 34): 0.6173
Surface SNAP-GIPR expression ([1]; replicate 35): 0.7865
Surface SNAP-GIPR expression ([1]; replicate 36): 0.6007
Surface SNAP-GIPR expression ([1]; replicate 37): 0.5904
Surface SNAP-GIPR expression ([1]; replicate 38): 0.7906
Surface SNAP-GIPR expression ([1]; replicate 39): 0.7153
Surface SNAP-GIPR expression ([1]; replicate 40): 0.6916
Surface SNAP-GIPR expression ([1]; replicate 41): 0.6376
Surface expression [2]: 0.8445
AD293 100 pM HTRF [3]: 0.04104
AD293 100 nM HTRF [3]: 0.2411
INS-1 cAMP (100 nM) [4]: 0.04521
AD293 100 pM cADDis [5]: -1.0843
AD293 100 nM cADDis [5]: 18.64
+GIP internalisation (100 nM) [6]: 0.3247
GIP-specific internalisation (100 nM) [6]: 0.02672
Constitutive internalisation (100 nM) [6]: 0.298
Surface expression [6]: 0.6535
Internalisation, +GIP [6]: 49.3267
Internalisation, GIP-only [6]: 3.992
Internalisation, Vehicle [6]: 45.335
+GIP internalisation (100 nM) [7]: 0.3116
GIP-specific internalisation (100 nM) [7]: 0.02961
Constitutive internalisation (100 nM) [7]: 0.282
Internalisation, +GIP [7]: 37.4683
Internalisation, GIP-only [7]: 3.708
Internalisation, Vehicle [7]: 33.76

B2: S64A (protein, UniProt P48546 22-466, looked up, variant S64A)
Gastric inhibitory …: B1 Gastric inhibitory … with S43A, Q162R
AD293 Surface [1, 8]: 0.5377
AD293 Surface ([1]; paired with cAMP 100 pM): 0.5377
Surface SNAP-GIPR expression ([1]; replicate 1): 0.5948
Surface SNAP-GIPR expression ([1]; replicate 2): 0.3831
Surface SNAP-GIPR expression ([1]; replicate 3): 0.1917
Surface SNAP-GIPR expression ([1]; replicate 4): 0.03284
Surface SNAP-GIPR expression ([1]; replicate 5): 0.714
Surface SNAP-GIPR expression ([1]; replicate 6): 0.449
Surface SNAP-GIPR expression ([1]; replicate 7): 0.6736
Surface SNAP-GIPR expression ([1]; replicate 8): 0.7024
Surface SNAP-GIPR expression ([1]; replicate 9): 0.4646
Surface SNAP-GIPR expression ([1]; replicate 10): 0.5884
Surface SNAP-GIPR expression ([1]; replicate 11): 0.4154
Surface SNAP-GIPR expression ([1]; replicate 12): 0.584
Surface SNAP-GIPR expression ([1]; replicate 13): 0.53
Surface SNAP-GIPR expression ([1]; replicate 14): 0.7656
Surface SNAP-GIPR expression ([1]; replicate 15): 0.5316
Surface SNAP-GIPR expression ([1]; replicate 16): 0.5279
Surface SNAP-GIPR expression ([1]; replicate 17): 0.5713
Surface SNAP-GIPR expression ([1]; replicate 18): 0.5329
Surface SNAP-GIPR expression ([1]; replicate 19): 0.5212
Surface SNAP-GIPR expression ([1]; replicate 20): 0.6932
Surface SNAP-GIPR expression ([1]; replicate 21): 0.7203
Surface SNAP-GIPR expression ([1]; replicate 22): 0.5804
Surface SNAP-GIPR expression ([1]; replicate 23): 0.6278
Surface SNAP-GIPR expression ([1]; replicate 24): 0.5394
Surface SNAP-GIPR expression ([1]; replicate 25): 0.4918
Surface SNAP-GIPR expression ([1]; replicate 26): 0.6002
Surface SNAP-GIPR expression ([1]; replicate 27): 0.6328
Surface SNAP-GIPR expression ([1]; replicate 28): 0.5573
Surface SNAP-GIPR expression ([1]; replicate 29): 0.4754
Surface SNAP-GIPR expression ([1]; replicate 30): 0.4312
Surface SNAP-GIPR expression ([1]; replicate 31): 0.4378
Surface SNAP-GIPR expression ([1]; replicate 32): 0.606
Surface SNAP-GIPR expression ([1]; replicate 33): 0.6793
Surface SNAP-GIPR expression ([1]; replicate 34): 0.4646
Surface SNAP-GIPR expression ([1]; replicate 35): 0.5832
Surface SNAP-GIPR expression ([1]; replicate 36): 0.4138
Surface SNAP-GIPR expression ([1]; replicate 37): 0.5632
Surface SNAP-GIPR expression ([1]; replicate 38): 0.4283
Surface SNAP-GIPR expression ([1]; replicate 39): 0.6589
Surface SNAP-GIPR expression ([1]; replicate 40): 0.5446
Surface SNAP-GIPR expression ([1]; replicate 41): 0.5428
Surface expression [2]: 0.6025
AD293 100 pM HTRF [3]: 0.1562
AD293 100 nM HTRF [3]: 1.061
INS-1 cAMP (100 nM) [4]: 1.062
AD293 100 pM cADDis [5]: 21.6969
AD293 100 nM cADDis [5]: 34.42
+GIP internalisation (100 nM) [6]: 0.3536
GIP-specific internalisation (100 nM) [6]: 0.06262
Constitutive internalisation (100 nM) [6]: 0.291
Surface expression [6]: 0.5133
Internalisation, +GIP [6]: 68.8859
Internalisation, GIP-only [6]: 12.125
Internalisation, Vehicle [6]: 56.7609
+GIP internalisation (100 nM) [7]: 0.3425
GIP-specific internalisation (100 nM) [7]: 0.05503
Constitutive internalisation (100 nM) [7]: 0.2874
Internalisation, +GIP [7]: 52.768
Internalisation, GIP-only [7]: 8.16
Internalisation, Vehicle [7]: 44.608
